This passage reports protease stability score results from the NTF2 design screens of Basanta et al. (2020).

The series can be described thus: protease stability score; higher = more stable; yeast display proteolysis, trypsin and chymotrypsin.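 Further: relative to predicted unfolded state with 0 unfolded-like and 1 meaning tenfold more protease.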
For “SEEEESIRHSWEIFETVLKTGDWTDYEKLFDPNDRTEIGDKRLHGMDLLIHILRRLGIKHNHAEMRIRSFEMIGDKAIIDGEIHVVLDFNGREVRSSSEILIIDRKINGRWLVESMHVI”, the protease stability score is 1.21.
With “SEEEESSEDATKLILRLWKTGDEHEWEHLFDPNVKVHIGDKHYVGMEIAVNTLHMLLRELGIDHIRLRDVKIFNGKVIIVFKIEVNGREFETHIISEKVNGRWRIKSVRFE” the figure was 1.39; with “SEEEESSERATKILRELLKTGNFRLLLELMDPNARLHTHINGVNIHDHGRNLARWLVERIKNAVIKINDEEVRIFNGRVEVDIDGELLINGRNFRVHEHWIFRKIDGKWFFEEVEIRVE”, 2.16.
With “SEEEESSHNAIKIWMETMETGNEELYLRLLDPHTRLDVNGKEFIGREVLKMFKKQIDHVKDVDVEHVEVQGDKVILNGRVRGDINGVERNTIEHLIVRKIDGRWRITEFSIR” the figure was 0.94.
With “SEEEESSKYAIELLRKVVETGDWRLIQRLADPHAKIEQGDKRLHGRETVTKHLIELGIDHIKFRDSRVQGDKVELDGEVDVNGQHRDTHILIEKIDGVWVWRRFEIK” the figure was 0.97; with “SEEEESTHVWSRLFSHAIETGDEDLLERLIDPHVKLIVDGRELHGREELLTWIRRLFRHLGIDHMEVRIKNFDIINGRIRVEDELLLIVNGKEIRLETKVTVEKFDGKWHNQEVKIE”, 0.776.
Consider “SEEEESWRRIAEEELRIRKTGDEDRFRELHDPSVKIDWNGQIIVGWEELHEILRHIAERYPNLRFEVTHSDVIDGRVHIDGRLNVNGVTLEFHIESVIVNGRTKSIRIEVR”, for which the protease stability score was found to be 0.524.
For “SEEEETAYKVMEEVISAWLTGDEDLFNELADPDVRFELEFNGKKIDIIGRELVSKYWRDVIDHIRVEVVLRDYRMIDGRIETETEIYVEVGDKSHSVETRLHMEVIDGRLRTVKIKVR” the value was 2.22; for “SEEEETIRRVAEVLVHSILTGDEHFEENYLDPNARIDVNGKHFIGRERYLEAIRDLNEHLGWELKDVKLREVNVQGDKMHLKMEIKRHVNGKDLFIDMHVNVWKVNGKWLIRSLRYS”, 1.44.
With “SEEEETLEELTRRLLHTWVTGDEQTLKDLADPDVRLIFNGQTYHGREQAERIIKELLDKLGVDRVHSEPRRFNIINGRIRMHVRIHYGDKEYIVHIIATKIDGRWTIKNVIFD”, the protease stability score is 1.24.
With “SEEEETLKRLAHHMYESYITGDERVIKHLVDPNARSRIGEFDDHGREATEELIRRIDHVHHIDIRDMKIQGNWLHLHVRVDGVVDGKRTEHDMEIIVLKVDGKWIVHSMIQR” the figure was 1.05; with “SEEEETLRDALELVREVLETGDPHLSERLFDPDVRVIYGDKHYHGREYASEMIRFMGVKHFHIKSVRDVDGQVDIDTETHFNGKKYRMHLQTKKIDGKWHLRIIEFR”, 1.39; with “SEEEEVAWEAVEILSTFILTGDFESLNKLFDPHVRVRIGDKELHGRETTNKIFRKEREEHGIEIRHIHVHDVHVINGRIHADVEHKIRINGKEDSRRVEWIIEKYNGRWIVREIRVH”, 1.35.
With “SEEEEVIDEAIHILEKHMQTGDWRVLRELADPNMRVHVNGRDLHGREQYIRWIEFLLKRVPNLKLDHFVLDHQHVVNGVAHLEGRLTYTINGVIHKTRTHFHIFKFDGQWRLESQSER” the figure was 0.951; with “SEEEEVLRHLSKTFTRAMLTGDWKFLFEFADPHVRNDVGDWTRIGMHSMIELLELLHRELRITHLHIDEVRVIGNKAEWEGRNNVRINGQEDKRDVRLELEIVDGKMSLVNVEFK”, 0.364.
With “SEEEEVMERFVELLIKLLITGDEEVLEHLMDPNVRIQIGDKVYHGREVARDLWRRYHRHWRIHDTEVKHHHVQGEFIEIHISIDGEIDGRREEERIIFFVVKINGRWLLHDIHFN” the figure was 2.51.
The sequence “SEEEEWAEIASKLEIEIYLTGDFERFRKFADPHVRYEIHIDGREFKIHGMELYSEWLLRFKGVRLFIKDERISVIGDKLYIHINGDLEFNGRRQDVHFEFLTLKVDGRWIVKKIRNESR” had a protease stability score of 1.59.
With “SEEEEWAHELMRLLIEFNETGDEHELHNLIDPNVRIVIGEYTIIGREIAIEWTRQARIKRVHIEDYRFQGDKLHVDSRSNGKYGDKEDTLKVEIIVEKINGKWVVREVRVK” the figure was 2.06; with “SEEEEWIIKVLRELTKSMETGDEDHLHHLADPDVRLHVGDKEFHGREDFKKWYTHLRIKHFELTDMRIQGEKAHLKVRVHMRYGDKEDRKEVDFTMIKIDGRWYLHSVHVR”, 2.09.
For “SEEEEWIRRALEILIEIIRTGDEDSSKRYVDPHVRLHIGDKEFHGREDFTRMVHELFNRVDHIEIRIHDMRIINGQAHVDTELILRQGDKEIVLRTEIVLLKFDGKWIMESVHIR” the value was 1.29; for “SEEEEWLRRYRHLFKHLWTTGDWRTLEELLDPRTRIDIDVGDKRYHIHGREDAVEFFHRERRELGIDHIEDKRTRVIDGQVEIHGKIHVDGRDETRTIHVIVVNGRMKYLYFHVE”, 0.5; for “SEEEEWMEEFRERWERNFMTGDEDAMRELADPNVRIDIGEWDVHGREHLAELLKRHLDTLGINHVEFDHSTVIDGVIHIHMTINVNGKRIYSEVRLLVVNGKLKHSHYDIK”, 1.01.
With “SEEEEYALKVLEDILKAFLTGDWKITEHLLDPDARLEINGRNFVGRELIRKYLEEYLRRIDVVRIKIRHVEVQGDKNHLEGELIEIQGDKHKSMDMKIHLVIINGRVRREHVRVE” the figure was 2.15; with “SEEEEYAREFLERHLHSLKTGDWREEHKQADPEVRLHIGDKEFHGREIFVKIQREILEQADHLRIHIRRVHVQGDFLHIDGELRIRINGREHYIDRKVIVWKFNGRWHLHEVSIE”, 1.39.
Consider “SEEEEYARHFMTLVMSNLHTGNFEESRQNADPRTRVVIGDKRLHGWDEFAREYHEELRDRGVEIHFRVHHIEEFDGRLLTDFSIEIRYGDKVDHIRIRLYVTKINGRWFIKELEFR”, for which the protease stability score is 1.1.
As for “SEEEEYARKAAEEFIKHVETGNEDKIILLFDPNALYVYNGVELIGWHVFKEHTHRFKNIRRHITHVEIRVINGVVHVHIDGRFHVNGVDVEQEINIVFRKINGRWKIESNEERFR”, the protease stability score was 1.57.
For “SEEEEYFRFVAEEFLKAWSTGNEEILERLFDPRVRLSFNGKQFHGRERVHDKLMQLLEHLGINHTRIDDREFRIIGDKAEIRIDLILHVGDKTLRVEVILIITKVNGVWMMKEVELRIH” the value was 1.51; for “SEEEEYLRRVAELILRLLITGDEDEHHNLADPNTLVLIDINGVHIRDHGWWALRRWWEELERRVPGMRVRPRNMTVQGEKVILHMETVIGDKRLRLDFYHLVIDGKITSVEIKVDES”, 2.4.
On to “SEEEEYVTKYTRHWLHSHVTGDEDYLRRYADPHVRVDINGREVHGRDEAAHFIERVLRHIREEHLDDRDFTVINGKSILHGELKISINGQEWRVNFDIIIVVVNGRFKREEVRVK”, for which the protease stability score worked out at 0.858.
With “SEEEFFTEMALRIYIELFETGDEHLIERLADPNVIIDFNGREFIGREYFSRIFHFLRRHWRMRDVTLKDWRVFDGRLHMEVQLYGKVNGQETQRDTHLVSTKINGRWRIHSDKWD” the figure was 1.25; with “SEEEHDAHIALKIWLDNLFTGDEEKLKEMMDPNVRMDFDGRHIHGREAIEMLLRRVDHWHHIEVRLEHLRIIGDKVILHIRQVEHIQIGDKHDRVHSNITLVFLKFDGKWFIREIRIK”, 2.78.
With “SEEEHDTRNALKIIIRTLITGNEDERRKLLDPHVRLEFEGWHEHGRDAAHLLSFWYRERVDVLRDSKVEHVELQGDKIRMDIILISEYNGVHTSTHVHIVVEKFNGRWHMRSIFFL” the figure was 1.16.
With “SEEEHDTRRAIEIFLRIIMTGNEEDFERLFDPDARSEWNGVELHGREIITHIWLEIFDRFPNIKIEVRVERYRIQGEKVDIDMELIFRVGDKEDSRKTRMHVLKVDGKWTVKLFKIK” the figure was 2.33.
The sequence “SEEEHDVEFVRRLQEEVWHTGDEDKLEELLDPDARAHVNGVTYHGREFVHFFYKRVDHVHHYQIEETRVVGDKLHLISRTDLVINGQRVKTELRWNITKVNGKWRVTEVRID” registered a protease stability score of 1.06.
For “SEEEHDVERSIKHFLHILETGDWKELYEQMDPNVRIEIDGKFIIGREASVHHFNRYDHHRSRIEIKHVDVYGDKLNVHGHIHEHFSVNGKDITRSMRVILHARKVDGQWIHTEVRYK” the value was 1.32; for “SEEEHDWRRALKIFLESLTTGDPKSITELVDPNARSDINGVDLHGREEWSKEMNRIKNLTIHDFEIEHISIYDGKAEINGHLDFEFDGVRTKIEVHLIFEKVDGKWVIQSRIVK”, 0.895; for “SEEEHEADLLHKELWESWHTGDEKHLTNLMDPNVRLQIGDKHYVGRENALNVLHFIRRKLGIKYFELESVTHHEINGRIHTIFDGSILINGKTVKDKIEVDTEKYNGQWRITQINIDFR”, 2.24.
As to “SEEEHEAIKHAYEFLEWLRTGDEEKIEKLLDPNVRLIIGDKTAHGREEFIRVMKEELERMGVNVFRLRDTRVNIFDGRVEIRFDTDLHFNGKTVHVELILRVHKVDGRWVLESVQVNIH”, the protease stability score was determined as 1.48.
For “SEEEHEEREAIEQLTRSLTTGDEHMMTNNMDPNVRIHIDGRDLVGREEAIKWLQEIHKKYKNIKYEIKRIDSFNGRLIVDGRVEYNGRRVDMHLIALKFDGRWLIEEVRVN” the value was 2.26.
For “SEEEHEFKKFLEHFLHRLTTGDEDELRRLADPHVRVLINGRHIVGMDEVTKVLRHLREIIEELRIDDIDLQGDKIRMDTRTRIRFIIGDWETKIETRTRIFIWKFNGRWIMEHIERD”, the protease stability score amounted to 0.811.
For “SEEEHEIRLAFKQVIETLITGDEHIMTQLLDPNVKIRQGDKILHGREEAHKWADEWLRRVDHFEDMKIHRHSVFNGRLELDSEQVVIQGDKTISIRSEIILTKINGRWQIEELRFD” the value was 1.43; for “SEEEHEIRRAVEHWYRSLHTGDEEESIDLVDPHTITIVNGREVHGRHLMYEIMRKFKNAKIEFEITHHEVVNGRADVNMRLTVHIGDKTYETIIHLHTEKVNGRWTVRHWEVK”, 1.46; for “SEEEHELDHIAKEFLRVYLTGDEDELRKLMDPNARVDINGREMIGMELILKDLRDRLEHLGIKHSHITIREVQNFDGQIHIRGHIRIEIGNKRLEFDSRIIMHVIDGRLRSFHVIFI”, 1.92.
On to “SEEEHELKHWMKLFKHMIETGDWDSLVHYLDPHTRMHVGEFHHHGRHLMLKAFHDFLREMGAKHSDHKDSEITIQGDKVELTLDTRSQVGDKEFNVRIININRKVNGRWIIHSIIIEVE”, for which the protease stability score is 1.09.
With “SEEEHEMERHEREFRDVAETGDERDWTNLADPNVRFEDEDEVLVGREDWHEYVRRVDHFHVRRLDYEHFSVIDGRIDIEGNMDIELNFDGQSHRMRVHVRIITTKINGVWLFESVHIQ” the figure was 1.75.
“SEEEHEQENWARLMLHLFLTGDEEILLELFDPNVRSDVDGRKFHGRDEVSHAIRWILEHFGFKHSHVRHFEIYNGRVHSEVEINVDGVRLTLHIHLNIYNGRLKDSEFRLK” displayed a protease stability score of 0.967.
For “SEEEHFAKELHKLFLEWWKTGDEEHLLEFADPDARSEIGDKRHHGREEVSRELLEFRRRIPGVQIRHQHVSVHLIDGKLTTHLHFRVNFNGVEFHETIIYYNDKYNGKWHLKSIIVTIE” the value was 0.954.
